Results published in PMC4510971.

What was measured:
Assay in all cases: ITC; 0.450 mM UBN1 injected into a cell with 30 μM H3/H4, 22 °C; 20 mM HEPES pH 7.5, 750 mM NaCl, 1 mM TCEP
[1] = target: H3.3(SAVM)/H4 (human | X. laevis) (UniProt P84243)
[2] = target: H3.3(G90M)/H4 (human | X. laevis) (UniProt P62799)
[3] = target: Asf1(1–169)/H3.3(60–135)/H4(20–102) (S. cerevisiae | X. laevis) (UniProt P32447)

Chain of UBN1(122–148) peptide (Q9NPG3 122-148): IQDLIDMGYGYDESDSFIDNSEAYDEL

Work on “UBN1(122–148) peptide (from UniProt Q9NPG3 122-148)” yielded a fold decrease in binding relative to H3.3 WT [1] of 3 fold, a fold decrease in binding relative to H3.3 WT [2] of 3 fold and a Kd [3] of 110 µM.
